Measurements published in the Human Domainome abundance scans (Beltran et al. 2025).
± gives the uncertainty stated by the source.

B1: Chromodomain-helicase-DNA-binding protein 4, residues 444 to 496; numbered along this chain, Q14839 (parent)
chain: EDDHHMEFCRVCKDGGELLCCDTCPSSYHIHCLNPPLPEIPNGEWLCPRCTCP

Variants of: B1
Assay: abundance fitness (aPCA) (normalised: wild type 0, dead -1); higher = more abundant; growth selection in yeast, the domain comes from the species named
Settings: Homo sapiens

Point of comparison: C24Y, abundance fitness -0.696 ± 0.1. Against it:
- P25K — higher, -0.078 ± 0.055
- P25S — higher, -0.1 ± 0.056
- P25E — higher, -0.28 ± 0.15
- P25M — higher, -0.167 ± 0.054
- P25Q — higher, -0.209 ± 0.077
- P25I — higher, -0.15 ± 0.051
- P25L — higher, -0.163 ± 0.044
- P25D — higher, -0.172 ± 0.089
- P25N — higher, -0.303 ± 0.072
- P25G — higher, -0.106 ± 0.072
- P25V — higher, -0.18 ± 0.048
- P25H — higher, -0.024 ± 0.045
- P25A — higher, -0.124 ± 0.079
- P25R — higher, 0.032 ± 0.058
- P25F — higher, -0.167 ± 0.077
- P25W — higher, -0.061 ± 0.087
- P25C — higher, -0.087 ± 0.051
- S27P — within error, -0.572 ± 0.075
- S27Q — higher, -0.064 ± 0.076
- S27F — higher, -0.177 ± 0.076
- S27G — higher, -0.22 ± 0.057
- S27W — higher, -0.198 ± 0.067
- S27T — higher, -0.044 ± 0.057
- S27H — higher, -0.068 ± 0.059
- S27I — higher, -0.394 ± 0.091
- S27A — higher, 0.067 ± 0.062
- S27K — higher, -0.082 ± 0.073
- S27V — higher, -0.057 ± 0.049
- S27R — higher, 0.016 ± 0.052
- S27Y — higher, 0.029 ± 0.059
- S27C — higher, -0.018 ± 0.075
- S27M — higher, -0.14 ± 0.076
- S27N — higher, -0.026 ± 0.07
- S27E — higher, -0.472 ± 0.12
- S27D — within error, -0.705 ± 0.12
- H29F — lower, -0.918 ± 0.11
- H29Y — within error, -0.787 ± 0.072
- H29W — lower, -1.1 ± 0.1
- H29D — within error, -0.811 ± 0.079
- H29M — lower, -0.998 ± 0.097
- H29A — within error, -0.748 ± 0.056
- H29R — lower, -0.97 ± 0.059
- H29N — within error, -0.556 ± 0.12
- H29L — lower, -0.983 ± 0.066
- H29I — within error, -0.822 ± 0.09
- H29E — within error, -0.804 ± 0.11
- H29T — lower, -0.921 ± 0.048
- H29V — lower, -1.06 ± 0.063
- H29Q — within error, -0.833 ± 0.11
- H29C — higher, -0.317 ± 0.063
- H29P — within error, -0.814 ± 0.072
- H29S — within error, -0.728 ± 0.054
- I30R — higher, -0.016 ± 0.061
- I30D — higher, -0.473 ± 0.1
- I30A — higher, -0.003 ± 0.056
- I30C — higher, -0.108 ± 0.076
- I30F — higher, -0.037 ± 0.067
- I30H — higher, -0.106 ± 0.061
- I30T — higher, -0.044 ± 0.055
- I30K — higher, -0.047 ± 0.08
- I30S — higher, -0.018 ± 0.046
- I30Q — higher, -0.159 ± 0.06
- I30L — higher, -0.023 ± 0.043
- I30W — higher, -0.238 ± 0.052
- I30M — higher, 0.026 ± 0.062
- I30V — higher, 0.005 ± 0.054
- I30N — higher, -0.072 ± 0.062
- I30E — higher, -0.072 ± 0.07
- I30Y — higher, -0.102 ± 0.057
- I30G — higher, -0.115 ± 0.058
- S26A — higher, 0.104 ± 0.066
- S26R — higher, 0.003 ± 0.042
- S26M — higher, 0.132 ± 0.052
- S26L — higher, -0.088 ± 0.048
- S26P — within error, -0.625 ± 0.067
- S26G — higher, 0.029 ± 0.059
- S26K — higher, -0.324 ± 0.049
- S26V — higher, -0.132 ± 0.063
- S26N — higher, -0.073 ± 0.08
- S26Q — higher, 0.08 ± 0.072
- S26C — higher, -0.05 ± 0.045
- S26Y — higher, -0.103 ± 0.071
- S26W — higher, -0.11 ± 0.068
- S26H — higher, 0.021 ± 0.07
- S26E — higher, 0.015 ± 0.052
- S26F — higher, -0.039 ± 0.06
- C24P — within error, -0.819 ± 0.064
- C24S — within error, -0.788 ± 0.064
- C24W — within error, -0.905 ± 0.11
- C24M — lower, -0.944 ± 0.058
- C24N — within error, -0.881 ± 0.11
- C24L — within error, -0.816 ± 0.047
- C24V — within error, -0.617 ± 0.054
- C24T — within error, -0.862 ± 0.079
- C24Q — lower, -0.907 ± 0.078
- C24R — within error, -0.629 ± 0.061
- Y28E — within error, -0.64 ± 0.082
- Y28C — within error, -0.639 ± 0.099
- Y28A — within error, -0.574 ± 0.079
- Y28G — within error, -0.605 ± 0.074
- Y28H — higher, -0.54 ± 0.055
- Y28L — within error, -0.712 ± 0.058
- Y28S — within error, -0.566 ± 0.057
- Y28N — higher, -0.528 ± 0.045
- Y28W — higher, -0.259 ± 0.053
- Y28F — higher, 0.015 ± 0.042
- Y28V — higher, -0.471 ± 0.076
- Y28P — within error, -0.667 ± 0.062
- Y28M — within error, -0.656 ± 0.08
- Y28K — within error, -0.833 ± 0.12
- Y28Q — within error, -0.657 ± 0.073
- Y28T — within error, -0.531 ± 0.069
- C32F — lower, -1.02 ± 0.059
- C32W — lower, -1.05 ± 0.1
- C32S — within error, -0.821 ± 0.052
- C32R — lower, -0.857 ± 0.057
- C32N — lower, -1.15 ± 0.14
- C32M — lower, -1 ± 0.079
- C32Q — higher, -0.369 ± 0.085
- C32E — within error, -0.66 ± 0.1
- C32I — lower, -0.898 ± 0.083
- C32V — lower, -0.914 ± 0.063
- C32L — lower, -0.99 ± 0.052
- C32A — lower, -0.882 ± 0.067
- C32K — lower, -0.933 ± 0.094
- C32D — within error, -0.68 ± 0.1
- C32P — lower, -0.937 ± 0.074
- N34C — higher, -0.155 ± 0.067
- N34A — higher, -0.08 ± 0.057
- N34D — higher, -0.114 ± 0.09
- H31P — higher, -0.354 ± 0.059
- H31T — higher, -0.042 ± 0.054
- H31E — higher, -0.046 ± 0.05
- H31N — higher, 0.106 ± 0.074
- H31Q — higher, -0.042 ± 0.063
- H31V — higher, -0.068 ± 0.059
- H31F — higher, 0.017 ± 0.056
- H31R — higher, -0.042 ± 0.053
- H31D — higher, -0.197 ± 0.081
- H31M — higher, -0.063 ± 0.067
- H31G — higher, 0.002 ± 0.06
- H31K — higher, 0.035 ± 0.05
- H31A — higher, -0.138 ± 0.057
- H31S — higher, -0.203 ± 0.051
- H31W — higher, -0.285 ± 0.056
- H31C — higher, -0.046 ± 0.068
- H31I — higher, -0.217 ± 0.062
- H31Y — higher, -0.097 ± 0.046
- H31L — higher, -0.194 ± 0.043
- L33Q — within error, -0.602 ± 0.063
- L33K — within error, -0.61 ± 0.055
- L33F — higher, -0.373 ± 0.048
- L33S — higher, -0.54 ± 0.044
- L33T — higher, -0.361 ± 0.05
- L33N — within error, -0.732 ± 0.061
- L33H — within error, -0.626 ± 0.053
- L33M — higher, -0.326 ± 0.067
- L33P — within error, -0.703 ± 0.052
- L33R — within error, -0.787 ± 0.073
- L33D — within error, -0.561 ± 0.092
- L33G — within error, -0.598 ± 0.087
- L33A — higher, -0.429 ± 0.057
- L33E — within error, -0.685 ± 0.2
- L33I — higher, -0.085 ± 0.042
- L33C — higher, -0.421 ± 0.051
- L33W — lower, -0.954 ± 0.14
